Experimental data: patent publication US5559213A, “Polyethylene-protein conjugates” (Hoffmann-La Roche Inc., priority 1995, dated 1996)

Tests used:
[1] = tested on: rIL-1alpha induction of interleukin-6; test: Inhibition of rIL-1alpha induction of interleukin-6 in mice (pharmacodynamics); type: in vivo
Method: The pharmacodynamics of IL-1ra protein was evaluated in vivo by the ability of the IL-1ra to inhibit rIL-1alpha induction of interleukin-6. Serum from mice treated with rIL-1alpha contain high levels of IL-6, [McIntosh et al., Immunol. 143: 162, (1989)]. The administration of unmodified IL-1ra together with IL-1alpha (0 hr time point) inhibits the induction of IL-6. This test system was used to compare the pharmacodynamic properties of unmodified and PEG IL-1ra. […] Three hours later, serum samples were collected. IL-6 levels (units) were determined using a modification of an IL-6 assay that has been previously described [Van Snick et al., Proc. Natl. Acad. Sci. USA 83:9679, (1986)]. In the IL.-6 assay, B9 hybridoma cells were treated with two fold serial dilutions of the test sera in 96-well microtiter plates. Following a 3 day incubation at 37° C. in a humidified atmosphere comprised of 5% CO2 and 95% air, the wells were pulsed with 0.5 uCi of tritiated thymidine and incubated for an additional 18 hr. The cells were then harvested onto glass fiber filters and the level of tritiated thymidine incorporation was determined by scintillation counting. IL-6 activity is expressed as U/ml. IL-6 units are defined as the inverse of the serum dilution which produces half-maximal tritiated thymidine incorporation compared to a reference standard.

[2] = Pharmacokinetic profile: serum IL-1ra levels in mice after subcutaneous administration; type: in vivo; details: for Serum Concentration of IL-1ra: Table D2 (pegylated as in Example 6a), 100 ug s.c.; for Serum Level of IL-1ra: Table D4 (reagent of Example 11a); for Serum IL-1ra: Table D5 (reagent of Example 18a)
Method: To determine the pharmacokinetic profile of PEG-IL-1ra species, C57BF/6 mice were administered 100 ug of […] or pegylated IL-1ra species subcutaneously. Serum samples were collected after 1, 2, 3, 4 and 6 hours from mice that received unmodified IL-1ra and after 2, 4, 8, 10, and 24 hours from mice that received PEG-IL-1ra. The serum levels were determined in the EL4 membrane binding assay described in Example 6.

[3] = biological target: T1, IL-1 receptor on EL-4 membranes (Mus musculus, UniProt P13504); test: IL-1 radioreceptor competition binding assay
T1 construct: incubated at varying concentrations with EL-4 membranes; endogenous in cells; host or cells: EL-4 cell membranes
T1 sequence (P13504 20-576): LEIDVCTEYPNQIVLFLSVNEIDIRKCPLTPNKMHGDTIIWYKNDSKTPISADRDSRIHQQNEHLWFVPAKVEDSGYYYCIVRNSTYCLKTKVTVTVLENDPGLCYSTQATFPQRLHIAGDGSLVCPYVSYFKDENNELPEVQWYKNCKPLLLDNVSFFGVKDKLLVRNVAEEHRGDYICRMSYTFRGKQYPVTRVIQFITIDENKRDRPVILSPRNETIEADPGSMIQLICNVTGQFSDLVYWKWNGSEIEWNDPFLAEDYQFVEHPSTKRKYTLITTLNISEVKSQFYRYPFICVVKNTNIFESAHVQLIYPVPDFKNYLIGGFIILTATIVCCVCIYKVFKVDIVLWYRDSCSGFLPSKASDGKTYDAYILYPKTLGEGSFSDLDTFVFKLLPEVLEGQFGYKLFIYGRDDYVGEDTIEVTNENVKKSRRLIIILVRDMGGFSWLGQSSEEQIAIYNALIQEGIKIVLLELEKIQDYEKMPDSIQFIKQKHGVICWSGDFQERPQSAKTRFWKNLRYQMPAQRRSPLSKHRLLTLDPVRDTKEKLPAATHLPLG
Method: Pegylated IL-1ra was purified from the reaction mixture using hydrophobic exchange chromatography (Bio-Rad; HRLC MP7 HlC). A linear gradient with decreasing salt concentrations from 0.43 to 0.0M (NH4)2 SO4 in 50 mM sodium phosphate pH 7.0 in 20 minutes was used to separate pegylated IL-1ra and unmodified IL-1ra. Aliquots of fractions were evaluated by SDS-PAGE and pooled fractions were assayed in an IL-1 radioreceptor competition binding assay. [Kilian et al. J. Immunol., 136, 4509, (1986)]. Briefly, IL-1ra and PEG-IL-1ra were incubated at varying concentrations with EL-4 membranes for 30 min at 37° C. The [^125 I]IL-1 alpha was then added and the incubation continued for 30 min. The assay was terminated by vacuum filtration and the collection of cell bound [^125 I]IL-1 on filter plates. The concentration of IL-1ra or PEG-IL-1ra that inhibits binding of [^125l]IL- 1 by 50% (IC50) was determined graphically. […] The pegylated IL-1ra mixture retained its ability-to bind to the IL-1 receptor on EL-4 membranes within a factor 2 to 3 fold relative to the unmodified II1-1ra.

Q: What does the source list for “IL-1ra: Interleukin-1 receptor antagonist, unmodified; apparent molecular weight 19 kD by SDS-PAGE”?
A: inhibition of the IL-1 response ([1]; Example 12, within 6 hours of administration): less than 50%; IL-6 ([1]; Table D1 (reagent of Example 5), 200 ug s.c. 0 hr prior to 0.2 ug rIL-1 alpha, IL-1 alone 28852 U/ml): 772 Units/ml; IL-6 ([1]; Table D1 (reagent of Example 5), 200 ug s.c. 6 hr prior to 0.2 ug rIL-1 alpha, IL-1 alone 28852 U/ml): 8361 Units/ml; IL-6 ([1]; Table D1 (reagent of Example 5), 200 ug s.c. 24 hr prior to 0.2 ug rIL-1 alpha, IL-1 alone 28852 U/ml): 22525 Units/ml; IL-6 ([1]; Table D1 (reagent of Example 5), 200 ug s.c. 48 hr prior to 0.2 ug rIL-1 alpha, IL-1 alone 28852 U/ml): 18485 Units/ml; IL-6 ([1]; Table D1 (reagent of Example 5), 200 ug s.c. 72 hr prior to 0.2 ug rIL-1 alpha, IL-1 alone 28852 U/ml): 13220 Units/ml; IL-6 ([1]; Table D3 (reagent of Example 11), 0 hr prior to IL-1 administration, IL-1 alone 27283 u/ml): 4789 Units/ml; IL-6 ([1]; Table D3 (reagent of Example 11), 6 hr prior to IL-1 administration, IL-1 alone 27283 u/ml): 15324 Units/ml; IL-6 ([1]; Table D3 (reagent of Example 11), 24 hr prior to IL-1 administration, IL-1 alone 27283 u/ml): 24841 Units/ml; IL-6 ([1]; Table D3 (reagent of Example 11), 48 hr prior to IL-1 administration, IL-1 alone 27283 u/ml): 16348 Units/ml; IL-6 ([1]; Table D3 (reagent of Example 11), 72 hr prior to IL-1 administration, IL-1 alone 27283 u/ml): 12067 Units/ml; IL-6 ([1]; Table D6 (reagent of Example 18), 0 hr prior to 0.05 ug rIL-1 alpha, IL-1 alone 9203 units/ml): 521 Units/ml; IL-6 ([1]; Table D6 (reagent of Example 18), 6 hr prior to 0.05 ug rIL-1 alpha, IL-1 alone 9203 units/ml): 2334 Units/ml; IL-6 ([1]; Table D6 (reagent of Example 18), 24 hr prior to 0.05 ug rIL-1 alpha, IL-1 alone 9203 units/ml): 13486 Units/ml; IL-6 ([1]; Table D6 (reagent of Example 18), 48 hr prior to 0.05 ug rIL-1 alpha, IL-1 alone 9203 units/ml): 16577 Units/ml; IL-6 ([1]; Table D6 (reagent of Example 18), 72 hr prior to 0.05 ug rIL-1 alpha, IL-1 alone 9203 units/ml): 12800 Units/ml; Serum Concentration of IL-1ra ([2]; 1 hr after administration): 400; Serum Concentration of IL-1ra ([2]; 2 hr after administration): 130; Serum Concentration of IL-1ra ([2]; 4 hr after administration): 15; Serum Concentration of IL-1ra ([2]; 6 hr after administration): 16; Serum Concentration of IL-1ra ([2]; time not given, line between 2 and 4 hr): 40; Serum Level of IL-1ra ([2]; 1 hr after administration): 0.22 µg/mL; Serum Level of IL-1ra ([2]; 2 hr after administration): 0.033 µg/mL; Serum Level of IL-1ra ([2]; 3 hr after administration): 0.013 µg/mL; Serum Level of IL-1ra ([2]; 4 hr after administration): 0.0053 µg/mL; Serum Level of IL-1ra ([2]; 6 hr after administration): 0.0015 µg/mL; Serum IL-1ra ([2]; 1 hr after administration): 580 ng/mL; Serum IL-1ra ([2]; 2 hr after administration): 75 ng/mL; Serum IL-1ra ([2]; 3 hr after administration): 30 ng/mL; Serum IL-1ra ([2]; 4 hr after administration): 30 ng/mL; Serum IL-1ra ([2]; 6 hr after administration): 8 ng/mL; IC50 ([3]; Example 6, Table VI: IL-1ra conjugated with reagent of Example 5, label = apparent molecular weight): 2.0 ng/mL; IC50 ([3]; Example 6A, Table VII: IL-1ra conjugated with reagent of Example 5a, label = apparent molecular weight (kD)): 1.6 ng/mL; IC50 ([3]; Example 12, Table XII: IL-1ra pegylated with reagent of Example 11, label = apparent molecular weight (kD)): 2.0 ng/mL; IC50 ([3]; Example 12A, Table XIII: IL-1ra pegylated with reagent of Example 11a, label = apparent molecular weight (kD)): 0.8 ng/mL; IC50 ([3]; Example 19, Table XIV: IL-1ra pegylated with reagent of Example 18, label = apparent molecular weight (kD)): 2.0 ng/mL; IC50 ([3]; Example 19A, Table XV: IL-1ra pegylated with reagent of Example 18a, label = apparent molecular weight (kD)): 1.5 ng/mL; IC50 ([3]; Example 26, Table XVIII: IL-1ra pegylated with reagent of Example 23, label = apparent molecular weight (kD)): 2.0 ng/mL; IC50 ([3]; Example 29, Table XX: IL-1ra pegylated with reagent of Example 28, label = molecular weight (kD)): 1.4 ng/mL; IC50 ([3]; Example 32, Table XXII: rIL-1ra conjugated with reagent of Example 31, label = apparent molecular weight (kD)): 1.5 ng/mL; IC50 ([3]; Example 38, Table XXV: rIL-1ra conjugated with the reagent described in Example 35 (so in the source), label = apparent molecular weight (kD)): 1.0 ng/mL; IC50 ([3]; IC50 of IL-1ra in this assay (general statement)): 1 to 2.0 ng/mL
